# Experimental data taken from the RNAGym collection of RNA variant scans (doi:10.1073/pnas.2313332121).
# Fewer inactive variants are shown than the library holds.
# B1: TPR 5TU (parent)
# chain: GGAUCUUCUCGAUCUAACAAAAAAGACAAAUCUGCCACAAAGCUUGAGAGCAUCUUCGGAUGCAGAGGCGGCAGCCUUCGGUGGCGCGAUAGCGCCAACGUUCUCAACUAUGACACGCAAAACGCGUGCUCCGUUGAAUGGAGUUUAUCAUG
# Variants of: B1
# Assay: polymerase ribozyme fitness, log enrichment relative to wild type (log ratio); higher = more active; in vitro selection for triplet polymerase activity
# Procedure, shortened: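 PCR was used to build mutant libraries for each subunit of a heterodimeric triplet polymerase ribozyme, which were then transcribed. A single in vitro selection round, in triplicate, used a frozen incubation at −7 °C and recovered extended constructs by gel excision, streptavidin beads and RT-PCR. Fitness is the logarithm of genotype enrichment relative to wild-type enrichment, averaged over replicates with inverse-variance weights. The logarithm is base 2, and after Illumina sequencing only genotypes with ≥10 input reads and ≥1 read per output were kept.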
row,Variant,polymerase ribozyme fitness (log ratio)
1,A23G U90A C93U C105U C125U,≤ -4.2
2,G25A C35U U56A A60C C85A C93U A106C,≤ -4.2
3,A23U G42C G88C C105G C116G,≤ -4.2
4,A23G C35U C51U C93G A121G A122U,≤ -4.2
5,A24U C72U G84U C118U A142G,-3.98
6,A23G C51G U53A A60G G84A U104G C116U A121C,≤ -4.2
7,A23G G83A G94A C125U A147C,≤ -4.2
8,A22U A52C G58C G84U C99A,≤ -4.2
9,A23G G86U C93U A150U,-3.88
10,A22U G50U C96G,0.467
11,A23U A60G G81A G83U,≤ -4.2
12,A22U A39C U61A C72U C85G G141A,≤ -4.2
13,A22U C57U G70A G81C G83C G100C A106C G133C,≤ -4.2
14,A24U A60U G84U,-2.22
15,A23C G141C,-3.64
16,A23C A40U C95U U134A U151A,≤ -4.2
17,A22U G94A,-0.557
18,A24U U33G U56A A91G C103A,≤ -4.2
19,A24U G42C G50U C85G G136A G141A,≤ -4.2
20,A23U A24C A30G A39G C116U,≤ -4.2
21,A22U C96U A121U U139A,-4.03

row,Variant,polymerase ribozyme fitness (log ratio)
1,A22U A30G C85G U104A C105A U111G,≤ -4.2
2,G25C A40U C87U C93A C95U,≤ -4.2
3,A23G C87U U127C,-3.81
4,A22G C85U G133C,-1.48
5,A23U C93A U135C,≤ -4.2
6,A23C C79A C103U A138G G143C,≤ -4.2
7,A24C A37C G59A C99G A107U,≤ -4.2
8,A22U C96U C118U,-0.15
9,A23C G34U C43U A60G C132U,-4.02
10,A24G C108U U148G,≤ -4.2
11,A22U C36G C105G,≤ -4.2
12,A24C A40U G94A C116A,≤ -4.2
13,G25A A28U A41U A66U G83U U111G C118U,≤ -4.2
14,A23U A28G U55A G59A U78G G128A,-3.79
15,A24U G84U,-2.26
16,A23C U44G A47U A91U A122U,≤ -4.2
17,A22U C57G C93G U151G,≤ -4.2
18,A24U U148C,-2.14
19,G25C A41C A47C G83U A89U A121C C125G A142C C149G A150U G152A,≤ -4.2
20,A24U C93U U104G,-1.84
21,A22U A24C A40U U55A C85A G117C G136U A138C,≤ -4.2

row,Variant,polymerase ribozyme fitness (log ratio)
1,A22U G83C G84A U101A C123A,-4.08
2,A24U A40C U55A A60G C75G C96G U104G,≤ -4.2
3,A23G A73U G81C,-4.17
4,A22U G71A,-2.64
5,A23C A30U G50A C54A C93G C95U G124A,≤ -4.2
6,A22U A23C,-4
7,A23U A41G,-3.88
8,A22U A37U C95U U146A,-1.67
9,A22G U56A C96G U101C G143A U148A,≤ -4.2
10,A22U A29G C35G U44G C57U C114A,≤ -4.2
11,A23C C57U G74C G92U U102A A115C G143C U151A,≤ -4.2
12,A22U A41C A52U G124U,-2.3
13,A23U C108A G143C,≤ -4.2
14,A22U A49U G81U G86C G141C,-4.13
15,A24U G83U G136A U146C A150G,-3.59
16,A23C G84U A106U G117U C118U C123U A142G,≤ -4.2
17,A23G U144G,-1.79
18,A23G A26C G141A C149G,≤ -4.2
19,A22U C32U U55G U56C C75A G88U C105U A142U,≤ -4.2
20,G25C C75U A91G C99A G124U U134A,≤ -4.2
21,A23G U56A A97G A115G,-3.42

row,Variant,polymerase ribozyme fitness (log ratio)
1,A24G C51G G59C G92C C99U C125U,≤ -4.2
2,G25A C76U C87A A110G A120G,≤ -4.2
3,A22U U56A A106U A107C A142G,≤ -4.2
4,A22U A30U C95U U134A,≤ -4.2
5,A23C A39U G46U U90A C96A C99U C114G G141C,≤ -4.2
6,G25C G94A,-3.16
7,A24U G48A A49G G50A U55A C123A G136C,≤ -4.2
8,A22U G141C,1.14
9,A24G A91U,≤ -4.2
10,A22U C36U U78C U146C,-3.63
11,A23G C54G U56A A142C,≤ -4.2
12,A23U U53G,≤ -4.2
13,A24G G83U,-3.03
14,G25A A30G A41U G50A C87U,≤ -4.2
15,A24G G92A A121U A147G,≤ -4.2
16,A24U C36A U44A C72G C95A A119G G140C,≤ -4.2
17,A23U U56A A73U G86A C93G C131G U139C,≤ -4.2
18,A22U C95U C103G,-1.55
19,A24U U31A C63G C76A,-3.16
20,A24C U56G G59C A91U U144C G152U,≤ -4.2
